First the molecules themselves.
B1: PAX14 (peptide)
peptide: RTFENDGLGVGRSIQKKSDRWYASHNIRSHFASMSPAGKAETVESCLAKPHTENSFTNVWKDDKTLDRYANYEGCLWNATGVVVCTGDETQCYGTWVPIGLAIPENEGGGSEGGGSEGGGSEGGGTKPPEYGDTPIPGYTYINPLDGTYPPGTEQNPANPNPSLEESQPLNTFMFQNNRFRNRQGALTVYTGTVTQGTDPVKTYYQYTPVSSKAMYDAYWNGKFRDCAFHSGFNEDPFVCEYQGQSSDLPQPPVNAGGGSGGGSGGGSEGGGSEGGGSEGGGSEGGGSGGGSGSGDFDYEKMANANKGAMTENADENALQSDAKGKLDSVATDYGAAIDGFIGDVSGLANGNGATGDFAGSNSQMAQVGDGDNSPLMNNFRQYLPSLPQSVECRPFVFSAGKPYEFSIDCDKINLFRGVFAFLLYVATFMYVFSTFANILRNKES
notes: Assayed as M13 phage clone displaying the insert
B2: PAX15 (peptide)
peptide: SYCRVKGGGEGGHTDSNLARSGCGKVARTSRLQHINPRATPPSRAETVESCLAKPHTENSFTNVWKDDKTLDRYANYEGCLWNATGVVVCTGDETQCYGTWVPIGLAIPENEGGGSEGGGSEGGGSEGGGTKPPEYGDTPIPGYTYINPLDGTYPPGTEQNPANPNPSLEESQPLNTFMFQNNRFRNRQGALTVYTGTVTQGTDPVKTYYQYTPVSSKAMYDAYWNGKFRDCAFHSGFNEDPFVCEYQGQSSDLPQPPVNAGGGSGGGSGGGSEGGGSEGGGSEGGGSEGGGSGGGSGSGDFDYEKMANANKGAMTENADENALQSDAKGKLDSVATDYGAAIDGFIGDVSGLANGNGATGDFAGSNSQMAQVGDGDNSPLMNNFRQYLPSLPQSVECRPFVFSAGKPYEFSIDCDKINLFRGVFAFLLYVATFMYVFSTFANILRNKES
notes: as for B1
B3: 5PAX12 (peptide)
peptide: RGWKCEGSQAAYGDKDIGRSRGCGSITKNNTNHAHPSHGAVAKIAETVESCLAKPHTENSFTNVWKDDKTLDRYANYEGCLWNATGVVVCTGDETQCYGTWVPIGLAIPENEGGGSEGGGSEGGGSEGGGTKPPEYGDTPIPGYTYINPLDGTYPPGTEQNPANPNPSLEESQPLNTFMFQNNRFRNRQGALTVYTGTVTQGTDPVKTYYQYTPVSSKAMYDAYWNGKFRDCAFHSGFNEDPFVCEYQGQSSDLPQPPVNAGGGSGGGSGGGSEGGGSEGGGSEGGGSEGGGSGGGSGSGDFDYEKMANANKGAMTENADENALQSDAKGKLDSVATDYGAAIDGFIGDVSGLANGNGATGDFAGSNSQMAQVGDGDNSPLMNNFRQYLPSLPQSVECRPFVFSAGKPYEFSIDCDKINLFRGVFAFLLYVATFMYVFSTFANILRNKES
notes: as for B1
B4: 5PAX7 (peptide)
peptide: RWGWERSPSDYDSDMDLGARRYATRTHRAPPRVLKAPLPAETVESCLAKPHTENSFTNVWKDDKTLDRYANYEGCLWNATGVVVCTGDETQCYGTWVPIGLAIPENEGGGSEGGGSEGGGSEGGGTKPPEYGDTPIPGYTYINPLDGTYPPGTEQNPANPNPSLEESQPLNTFMFQNNRFRNRQGALTVYTGTVTQGTDPVKTYYQYTPVSSKAMYDAYWNGKFRDCAFHSGFNEDPFVCEYQGQSSDLPQPPVNAGGGSGGGSGGGSEGGGSEGGGSEGGGSEGGGSGGGSGSGDFDYEKMANANKGAMTENADENALQSDAKGKLDSVATDYGAAIDGFIGDVSGLANGNGATGDFAGSNSQMAQVGDGDNSPLMNNFRQYLPSLPQSVECRPFVFSAGKPYEFSIDCDKINLFRGVFAFLLYVATFMYVFSTFANILRNKES
notes: as for B1
B5: PAX9 (peptide)
peptide: RWPSVGYKGNGSDTIDVHSNDASTKRSLIYNHRRPLFPAETVESCLAKPHTENSFTNVWKDDKTLDRYANYEGCLWNATGVVVCTGDETQCYGTWVPIGLAIPENEGGGSEGGGSEGGGSEGGGTKPPEYGDTPIPGYTYINPLDGTYPPGTEQNPANPNPSLEESQPLNTFMFQNNRFRNRQGALTVYTGTVTQGTDPVKTYYQYTPVSSKAMYDAYWNGKFRDCAFHSGFNEDPFVCEYQGQSSDLPQPPVNAGGGSGGGSGGGSEGGGSEGGGSEGGGSEGGGSGGGSGSGDFDYEKMANANKGAMTENADENALQSDAKGKLDSVATDYGAAIDGFIGDVSGLANGNGATGDFAGSNSQMAQVGDGDNSPLMNNFRQYLPSLPQSVECRPFVFSAGKPYEFSIDCDKINLFRGVFAFLLYVATFMYVFSTFANILRNKES
notes: as for B1

The target of the experiment is T1, hPEPT1 receptor domain (human PEPT1, amino acid residues 391-571), His-tag fusion protein (human, UniProt P46059 391-571).
T1 construct: purified under denaturing conditions; also called recombinant hPEPT1; not shown: poly-histidine tag (pET vector) at the NH2-terminal end
T1 sequence: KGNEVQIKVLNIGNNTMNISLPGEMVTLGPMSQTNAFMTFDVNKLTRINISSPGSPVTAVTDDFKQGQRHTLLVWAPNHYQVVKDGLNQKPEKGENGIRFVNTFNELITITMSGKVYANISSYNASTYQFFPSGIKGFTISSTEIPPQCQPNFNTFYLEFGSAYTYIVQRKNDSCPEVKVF
The experiment can be described thus: phage ELISA, plate coated with hPEPT1 domain. The method, then:
6.6. Receptor ELISA Procedure 96 well plates were coated overnight with GIT receptor, BSA and, optionally, IDE (insulin degrading enzyme, an irrelevant His-fusion protein)or hTF. The plates were blocked for one hour with 0.5% BSA-PBS. After clarification, the amplified phage were diluted 1:100 in […] plus 0.05% Tween 20 in PBS and added to the plates. Following incubation of the plates on a rotator for 1 to 2 hours, the plates were washed 5 times with 1% BSA plus 0.05% Tween 20 in PBS. […] After the plates were washed 5 times, as described above, TMB substrate was added to the wells. The plates were read at 650 nm absorbance.
For the molecule B1, the OD worked out at 1.1 OD. As for B2, the OD was found to be 0.301 OD. With B3 the figure was 0.227 OD. With B4, the OD came to 0.171 OD. To B5 belongs 0.312 OD.

The record behind these values is patent US6703362 (CYTOGEN, dated 2004).
